{"source": "patent US20080044436A1", "about": "“Method for Screening and Compositions for Treating Cancers” (priority 2004, published 2008)", "molecules": {"B1": {"name": "GST-TReP-132: in-frame fusion of the TReP-132 coding region downstream of GST in pGEX-2TK (protein)", "chain": "MGDQQLYKTNHVAHGSENLFYQQPPLGVHSGLNHNYGNAVTGGGMDAPQASPISPHFPQDTRDGLGLPVGSKNLGQMDTSRQGGWGSHAGPGNHVQLRGNLANSNMMWGAPAQAEPTDGYQYTYSQASEIRTQKLTSGVLHKLDSFTQVFANQNLRIQVNNMAQVLHTQSAVMDGAPDSALRQLLSQKPMEPPAPAIPSRYQQVPQQPHPGFTGGLSKPALQVGQHPTQGHLYYDYQQPLAQVPVQGGQPLQAPQMLSQHMQQMQQHQYYPPQQQQQAGQQRISMQEIQTQPQQIRPSQPQPPPQQQQPQQLQLQQRQGSMQIPQYYQPQPMMQHLQEQQQQQMHLQPPSYHRDPHQYTPEQAHTVQLIPLGSMSQYYYQEPQQPYSHPLYQQSHLSQHQQREDSQLKTYSSDRQAQAMLSSHGDLGPPDTGMGDPASSDLTRVSSTLPHRPLLSPSGIHLNNMGPQHQQLSPSAMWPQMHLPDGRAQPGSPESSGQPKGAFGEQFDAKNKLTCSICLKEFKNLPALNGHMRSHGGMRASPNLKQEEGEKVLPPQPQPPLPPPPPPPPPPQLPPEAESLTPMVMPVSVPVKLLPPKPSSQGFTNSTVAAPSARDKPASSMSDDEMPVLEIPRKHQPSVPKAEEPLKTVQEKKKFRHRPEPLFIPPPPSYNPNPAASYSGATLYQSQLRSPRVLGDHLLLDPTHELPPYTPPPMLSPVRQGSGLFSNVLISGHGPGAHPQLPLTPLTPTPRVLLCRSNSIDGSNVTVTPGPGEQTVDVEPRINIGLRFQAEIPELQDISALAQDTHKATLVWKPWPELENHDLQQRVENLLNLCCSSALPGGGTNSEFALHSLFEAKGDVMVALEMLLLRKPVRLKCHPLANYHYAGSDKWTSLERKLFNKALATYSKDFIFVQKMVKSKTVAQCVEYYYTWKKIMRLGRKHRTRLAEIIDDCVTSEEEEELEEEEEEDPEEDRKSTKEEESEVPKSPEPPPVPVLAPTEGPPLQALGQPSGSFICEMPNCGAVFSSRQALNGHARIHGGTNQVTKARGAIPSGKQKPGGTQSGYCSVKSSPSHSTTSGETDPTTIFPCKECGKVFFKIKSRNAHMKTHRQQEEQQRQKAQKAAFAAEMAATIERTTGPVGAPGLLPLDQLSLIKPIKDVDILDDDVVQQLGGVMEEAEVVDTDLLLDDQDSVLLQGDAEL", "modifications": "left off: a dimerising Fc or GST; large carriers; small tags and cut ends", "notes": "in-frame fusion of the TReP-132 coding region downstream of GST in pGEX-2TK"}}, "biological_target": "T1, Sp1 (Homo sapiens, UniProt P08047)", "T1 construct": "made in house", "T1 sequence (P08047 whole entry)": "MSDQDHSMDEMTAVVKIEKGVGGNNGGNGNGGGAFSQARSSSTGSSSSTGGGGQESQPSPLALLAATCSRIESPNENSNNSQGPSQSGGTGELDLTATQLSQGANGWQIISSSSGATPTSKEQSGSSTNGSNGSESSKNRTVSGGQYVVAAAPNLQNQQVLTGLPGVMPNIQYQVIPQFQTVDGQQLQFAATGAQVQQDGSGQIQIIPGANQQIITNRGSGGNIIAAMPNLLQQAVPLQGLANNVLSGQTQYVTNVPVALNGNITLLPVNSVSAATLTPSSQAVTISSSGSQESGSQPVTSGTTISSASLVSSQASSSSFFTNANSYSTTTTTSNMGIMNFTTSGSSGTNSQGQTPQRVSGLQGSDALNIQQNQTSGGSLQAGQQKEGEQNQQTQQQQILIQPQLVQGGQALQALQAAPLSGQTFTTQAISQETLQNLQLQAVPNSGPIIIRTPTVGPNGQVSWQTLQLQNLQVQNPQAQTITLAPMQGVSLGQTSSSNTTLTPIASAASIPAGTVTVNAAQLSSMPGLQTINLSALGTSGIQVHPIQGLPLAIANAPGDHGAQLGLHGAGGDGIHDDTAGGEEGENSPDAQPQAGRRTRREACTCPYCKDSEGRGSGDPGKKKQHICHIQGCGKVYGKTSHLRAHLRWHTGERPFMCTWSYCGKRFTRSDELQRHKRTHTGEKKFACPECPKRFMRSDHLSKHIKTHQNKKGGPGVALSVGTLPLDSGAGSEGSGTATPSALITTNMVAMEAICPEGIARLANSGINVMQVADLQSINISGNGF", "assay": "GST pull-down, TReP-132 and Sp1", "format": "binding", "conditions": "GST pull-down with 35S-Sp1, vs GST alone", "protocol": "FIG. 13D: GST-TReP-132 proteins were incubated with ^35-[S]-Sp1 and immobilized on a glutathione-Sepharose column. Specific interactions were analyzed by comparison with the results obtained by incubating GST alone with ^35-[S]-Sp1. Sp1 input: 1/10th of radiolabelled Sp1 level used in the incubations.\nIn order to evaluate the interaction of TReP-132, Sp1, ER and PR, the wt and mutant GST-TReP-132 fusion proteins were expressed, then immobilized on glutathione-Sepharose as described (Frangioni and Neel, 1993; Monte et al., 1998). The ^35S-[Sp1], ^35S-[ER] and ^35S-[PR-B] proteins were synthesized in vitro using a rabbit reticulocyte lysate and T7 RNA polymerase system as directed by the manufacturer (Promega Corporation, Madison, Wis.). Proteins which bound, then detached from the Sepharose after being heated to boiling in SDS buffer were then separated on a 10% SDS-PAGE gel. The gels were stained with Coomassie blue, dried and autoradiographed.", "data": [{"molecule": "B1", "values": [{"measurement": "interaction with Sp1", "value": "protein/protein itneraction was observed"}]}]}
